Consider 6 molecules from patent US20220185894A1 (F STAR THERAPEUTICS, published 2022).

Several values for one entry are separate records, joined by “and”; a condition that tells them apart may be missing. Equal entries are not always repeated.

Test [1] deals with T1, human PD-L1 expressed on cells (human, UniProt Q9NZQ7 19-290). Put plainly: cell-based or functional assay.
Test [2] has as its target T1, human PD-L1 expressed on cells. Put plainly: flow cytometry on HEK cells expressing human PD-L1. Here is the method:
(§1) HEK cells expressing human or cynomolgus PD-L1 grown in DMEM (Life Technologies, 61965-026) containing 10% FBS (Life Technologies, 10270-1-6), 100 μg/ml Hygromycin B (Melford Laboratories Ltd, Z2475), 15 μg/ml Blasticidin (Melford Laboratories Ltd, B1105) and 1 μg/ml Doxycyclin (Sigma, D9891) were detached from tissue culture flasks using cell dissociation buffer (Life Technologies, 13151-014) and seeded in V-bottom 96-well plates (Costar, 3897) at 2×10⁵ cells/well. The plates were centrifuged at 1500 rpm for 3 min at 4° C. to pellet the cells. A dilution series of the mAb² (or control mAb) was incubated with the cells in a 100 μl volume for 1 h at 4° C. The plates were washed and secondary antibody (Anti-human Fc-488, Jackson ImmunoResearch, 109-546-098) was diluted 1:1000 in PBS and 100 μl was added to the cells for 30 min at 4° C. (plates were kept in the dark). The plates were washed then cells were resuspended in 100 μl PBS containing 1 μg/ml DAPI (Biotium, 40043). The plates were read using Canto II flow cytometer (BD Bioscience). Dead cells were excluded and the fluorescence in the FITC channel (488 nm/530/30) was measured. The data was fit using log (agonist) vs response in GraphPad Prism Software. The plates were read on a BD FACSCanto II cytometer (BD Biosciences) and the data analysed using FlowJo.

The target in test [3] is T2, cynomolgus PD-L1 expressed on cells (cynomolgus monkey, UniProt Q9NZQ7 19-290 (human entry)).
T2 construct: also called cPD-L1; cyno PD-L1
T2 sequence (Q9NZQ7 other isoform, or with tags, fused parts or gaps limits assumed): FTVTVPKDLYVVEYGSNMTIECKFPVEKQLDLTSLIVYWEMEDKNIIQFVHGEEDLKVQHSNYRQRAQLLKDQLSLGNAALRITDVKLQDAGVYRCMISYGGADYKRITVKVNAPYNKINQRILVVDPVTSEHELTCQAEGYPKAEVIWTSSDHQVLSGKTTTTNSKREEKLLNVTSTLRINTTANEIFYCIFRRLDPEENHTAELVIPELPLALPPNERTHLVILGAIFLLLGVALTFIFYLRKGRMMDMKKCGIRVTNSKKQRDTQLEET
Put plainly: flow cytometry on HEK cells expressing cynomolgus PD-L1. Here is the method: as §1

The target in test [4] is T3, human PD-L1 Fc (R&D Systems, 156-B7) (human, UniProt Q9NZQ7 19-239).
T3 construct: Bought protein; not shown: Fc tag of the bought fusion protein
T3 sequence (Q9NZQ7 19-239 limits assumed): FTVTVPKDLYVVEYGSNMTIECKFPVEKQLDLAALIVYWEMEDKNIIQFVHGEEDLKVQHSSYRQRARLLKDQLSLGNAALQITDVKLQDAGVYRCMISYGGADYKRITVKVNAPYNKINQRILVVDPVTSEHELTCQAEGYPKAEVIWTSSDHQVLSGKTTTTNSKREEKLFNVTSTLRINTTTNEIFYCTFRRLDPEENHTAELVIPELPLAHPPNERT
Put plainly: SPR, BIAcore T200; mAb2 captured on Protein L, PD-L1 Fc injected. The protocol:
(§2) Protein L (Thermo, 21189) was immobilized on flow cells 1 and 2 of a Series S CM5 chip (GE Healthcare, BR-1005-30) by amine coupling (GE Healthcare, BR-1000-50) to a surface density of 2000 RU by following the manufacturer's instructions for the BIAcore T200 instrument. […] The association time was 3 min and the dissociation time was 6 min. Running buffer was HBS-P (GE Healthcare, BR-1003-68). Both flow cells were regenerated by injecting 10 mM sodium hydroxide (NaOH) at a flow rate of 100 μl/min for 20 seconds. The data were analysed by double referencing against the blank flow cell.
(§3) The binding kinetics were fit with a 1:1 Langmuir model to generate binding association (kₐ) and dissociation (kd) rates. Equilibrium binding constants (KD) were calculated by dividing the dissociation rate by the association rate for each sample. Data analysis was performed with BiaEvaluation software version 3.2.

Test [5] has as its target T4, recombinant Fc-tagged human LAG-3 (R&D Systems, 2319-L3-050) (human, UniProt P18627 23-450).
T4 construct: Bought protein; also called LAG-3 Fc; human LAG-3-Fc; not shown: Fc tag of the bought fusion protein
T4 sequence: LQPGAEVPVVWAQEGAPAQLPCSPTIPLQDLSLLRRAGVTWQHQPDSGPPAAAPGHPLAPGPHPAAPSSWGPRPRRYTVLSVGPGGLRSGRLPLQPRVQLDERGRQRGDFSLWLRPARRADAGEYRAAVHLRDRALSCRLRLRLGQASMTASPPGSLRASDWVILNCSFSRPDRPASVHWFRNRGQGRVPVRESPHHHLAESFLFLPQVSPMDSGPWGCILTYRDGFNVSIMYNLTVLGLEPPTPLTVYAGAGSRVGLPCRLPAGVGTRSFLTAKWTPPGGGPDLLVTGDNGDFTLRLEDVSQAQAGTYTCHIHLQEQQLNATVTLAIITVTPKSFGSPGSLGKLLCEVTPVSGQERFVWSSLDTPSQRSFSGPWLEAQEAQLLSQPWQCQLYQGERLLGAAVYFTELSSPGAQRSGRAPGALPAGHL
Put plainly: SPR, BIAcore T200; mAb2 captured on Protein L, human LAG-3 Fc injected. Here is the method: as §2, §3

T1 sequence (Q9NZQ7 19-290 limits assumed): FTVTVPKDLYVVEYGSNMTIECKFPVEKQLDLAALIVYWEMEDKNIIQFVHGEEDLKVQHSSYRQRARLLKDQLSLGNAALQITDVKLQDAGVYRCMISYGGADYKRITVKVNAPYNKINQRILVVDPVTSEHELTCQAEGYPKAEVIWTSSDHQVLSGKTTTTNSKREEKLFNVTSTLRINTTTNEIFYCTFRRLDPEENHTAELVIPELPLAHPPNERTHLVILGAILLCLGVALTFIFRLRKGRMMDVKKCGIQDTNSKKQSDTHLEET

B1: anti-human LAG-3/PD-L1 mAb2 FS18-7-32/84G09 with LALA mutation (bispecific antibody, human IgG1, kappa, L234A L235A)
heavy: EVQLVESGGGLVQPGRSLRLSCAASGFTFDDYAMHWVRQTPGKGLEWVSGISWKSNIIGYADSVKGRFTISRDNAKNSLYLQMNSLRAEDTALYYCARDITGSGSYGWFDPWGQGTLVTVSSASTKGPSVFPLAPSSKSTSGGTAALGCLVKDYFPEPVTVSWNSGALTSGVHTFPAVLQSSGLYSLSSVVTVPSSSLGTQTYICNVNHKPSNTKVDKKVEPKSCDKTHTCPPCPAPEAAGGPSVFLFPPKPKDTLMISRTPEVTCVVVDVSHEDPEVKFNWYVDGVEVHNAKTKPREEQYNSTYRVVSVLTVLHQDWLNGKEYKCKVSNKALPAPIEKTISKAKGQPREPQVYTLPPSWDEPWGEDVSLTCLVKGFYPSEIAVEWESNGQPENNYKTTPPVLDSDGSFFLYSKLTVPYDRWVWPDEFSCSVMHEALHNHYTQKSLSLSPG
light: DIQMTQSPSSLSASVGDRVTITCRASQSISSYLNWYQQKPGKAPKPLIYVASSLQSGVPSSFSGSGSGTDFTLTISSLQPEDFATYYCQQSYSNPITFGQGTRLEIKRTVAAPSVFIFPPSDEQLKSGTASVVCLLNNFYPREAKVQWKVDNALQSGNSQESVTEQDSKDSTYSLSSTLTLSKADYEKHKVYACEVTHQGLSSPVTKSFNRGEC
notes: also called FS18-7-32/84G09LALA; F518-7-32/84G09LALA
As to B1, in test [1], the “Maximal IL2 release calculated as % ctrl (84G09 + 25F7)” value was 82.9%. The same molecule had an EC50 in test [2] of 3.82 nM. The same molecule yielded an EC50 in test [3] of 1.98 nM. In test [4], this molecule had a Kd of 1 nM, an off-rate constant (koff) of 0.00032 s⁻¹ and a kon of 340000 M⁻¹ s⁻¹. In addition, in test [5], the Kd worked out at 0.049 nM, the koff was 0.00028 s⁻¹ and the kon came out at 5.6e+06 M⁻¹ s⁻¹.

B2: anti-human LAG-3/PD-L1 mAb2 FS18-7-95/84G09 with LALA mutation (bispecific antibody, human IgG1, kappa, L234A L235A)
heavy: EVQLVESGGGLVQPGRSLRLSCAASGFTFDDYAMHWVRQTPGKGLEWVSGISWKSNIIGYADSVKGRFTISRDNAKNSLYLQMNSLRAEDTALYYCARDITGSGSYGWFDPWGQGTLVTVSSASTKGPSVFPLAPSSKSTSGGTAALGCLVKDYFPEPVTVSWNSGALTSGVHTFPAVLQSSGLYSLSSVVTVPSSSLGTQTYICNVNHKPSNTKVDKKVEPKSCDKTHTCPPCPAPEAAGGPSVFLFPPKPKDTLMISRTPEVTCVVVDVSHEDPEVKFNWYVDGVEVHNAKTKPREEQYNSTYRVVSVLTVLHQDWLNGKEYKCKVSNKALPAPIEKTISKAKGQPREPQVYTLPPSWDEPWGEDVSLTCLVKGFYPSDIAVEWESNGYQEDNYKTTPPVLDSDGSFFLYSKLTVPYDRWVWPDEFSCSVMHEALHNHYTQKSLSLSPG
light: DIQMTQSPSSLSASVGDRVTITCRASQSISSYLNWYQQKPGKAPKPLIYVASSLQSGVPSSFSGSGSGTDFTLTISSLQPEDFATYYCQQSYSNPITFGQGTRLEIKRTVAAPSVFIFPPSDEQLKSGTASVVCLLNNFYPREAKVQWKVDNALQSGNSQESVTEQDSKDSTYSLSSTLTLSKADYEKHKVYACEVTHQGLSSPVTKSFNRGEC
Turning to B2, the “Maximal IL2 release calculated as % ctrl (84G09 + 25F7)” value in test [1] was 79.8%.

B3: anti-human LAG-3/PD-L1 mAb2 FS18-7-33/84G09 with LALA mutation (bispecific antibody, human IgG1, kappa, L234A L235A)
heavy: EVQLVESGGGLVQPGRSLRLSCAASGFTFDDYAMHWVRQTPGKGLEWVSGISWKSNIIGYADSVKGRFTISRDNAKNSLYLQMNSLRAEDTALYYCARDITGSGSYGWFDPWGQGTLVTVSSASTKGPSVFPLAPSSKSTSGGTAALGCLVKDYFPEPVTVSWNSGALTSGVHTFPAVLQSSGLYSLSSVVTVPSSSLGTQTYICNVNHKPSNTKVDKKVEPKSCDKTHTCPPCPAPEAAGGPSVFLFPPKPKDTLMISRTPEVTCVVVDVSHEDPEVKFNWYVDGVEVHNAKTKPREEQYNSTYRVVSVLTVLHQDWLNGKEYKCKVSNKALPAPIEKTISKAKGQPREPQVYTLPPSWDEPWGEDVSLTCLVKGFYPSDIAVEWESNGQPEDNYKTTPPVLDSDGSFFLYSKLTVPYDRWVWPDEFSCSVMHEALHNHYTQKSLSLSPG
light: DIQMTQSPSSLSASVGDRVTITCRASQSISSYLNWYQQKPGKAPKPLIYVASSLQSGVPSSFSGSGSGTDFTLTISSLQPEDFATYYCQQSYSNPITFGQGTRLEIKRTVAAPSVFIFPPSDEQLKSGTASVVCLLNNFYPREAKVQWKVDNALQSGNSQESVTEQDSKDSTYSLSSTLTLSKADYEKHKVYACEVTHQGLSSPVTKSFNRGEC
notes: also called FS18-7-33/84G09LALA; F518-7-33/84G09LALA
For the molecule B3, in test [1], the “Maximal IL2 release calculated as % ctrl (84G09 + 25F7)” value is 64%. In addition, the EC50 in test [2] was 3.45 nM and 3.23 nM. Further, in test [3], the EC50 is 1.9 nM and 1.73 nM. In test [4], this molecule displayed a dissociation constant Kd of 1.1 nM, a koff of 0.00042 s⁻¹ and a kon of 370000 M⁻¹ s⁻¹. In test [5], the Kd was 0.043 nM, the dissociation rate constant (koff) amounted to 0.00018 s⁻¹ and the kon is 4.2e+06 M⁻¹ s⁻¹.

B4: anti-human LAG-3/PD-L1 mAb2 FS18-7-58/84G09 with LALA mutation (bispecific antibody, human IgG1, kappa, L234A L235A)
heavy: EVQLVESGGGLVQPGRSLRLSCAASGFTFDDYAMHWVRQTPGKGLEWVSGISWKSNIIGYADSVKGRFTISRDNAKNSLYLQMNSLRAEDTALYYCARDITGSGSYGWFDPWGQGTLVTVSSASTKGPSVFPLAPSSKSTSGGTAALGCLVKDYFPEPVTVSWNSGALTSGVHTFPAVLQSSGLYSLSSVVTVPSSSLGTQTYICNVNHKPSNTKVDKKVEPKSCDKTHTCPPCPAPEAAGGPSVFLFPPKPKDTLMISRTPEVTCVVVDVSHEDPEVKFNWYVDGVEVHNAKTKPREEQYNSTYRVVSVLTVLHQDWLNGKEYKCKVSNKALPAPIEKTISKAKGQPREPQVYTLPPSWDEPWGEDVSLTCLVKGFYPSDIAVEWESNGYPEIEFKTTPPVLDSDGSFFLYSKLTVPYDRWVWPDEFSCSVMHEALHNHYTQKSLSLSPG
light: DIQMTQSPSSLSASVGDRVTITCRASQSISSYLNWYQQKPGKAPKPLIYVASSLQSGVPSSFSGSGSGTDFTLTISSLQPEDFATYYCQQSYSNPITFGQGTRLEIKRTVAAPSVFIFPPSDEQLKSGTASVVCLLNNFYPREAKVQWKVDNALQSGNSQESVTEQDSKDSTYSLSSTLTLSKADYEKHKVYACEVTHQGLSSPVTKSFNRGEC
notes: also called F518-7-58/84G09LALA
Consider B4, for which the “Maximal IL2 release calculated as % ctrl (84G09 + 25F7)” value in test [1] was 79.4%. For the same molecule, the EC50 is 3.77 nM and 3.91 nM in test [2]; 1.86 nM and 2.03 nM in test [3].

B5: anti-human LAG-3/PD-L1 mAb2 FS18-7-88/84G09 with LALA mutation (bispecific antibody, human IgG1, kappa, L234A L235A)
heavy: EVQLVESGGGLVQPGRSLRLSCAASGFTFDDYAMHWVRQTPGKGLEWVSGISWKSNIIGYADSVKGRFTISRDNAKNSLYLQMNSLRAEDTALYYCARDITGSGSYGWFDPWGQGTLVTVSSASTKGPSVFPLAPSSKSTSGGTAALGCLVKDYFPEPVTVSWNSGALTSGVHTFPAVLQSSGLYSLSSVVTVPSSSLGTQTYICNVNHKPSNTKVDKKVEPKSCDKTHTCPPCPAPEAAGGPSVFLFPPKPKDTLMISRTPEVTCVVVDVSHEDPEVKFNWYVDGVEVHNAKTKPREEQYNSTYRVVSVLTVLHQDWLNGKEYKCKVSNKALPAPIEKTISKAKGQPREPQVYTLPPSWDEPWGEDVSLTCLVKGFYPSDIAVEWESNGVPELNVKTTPPVLDSDGSFFLYSKLTVPYDRWVWPDEFSCSVMHEALHNHYTQKSLSLSPG
light: DIQMTQSPSSLSASVGDRVTITCRASQSISSYLNWYQQKPGKAPKPLIYVASSLQSGVPSSFSGSGSGTDFTLTISSLQPEDFATYYCQQSYSNPITFGQGTRLEIKRTVAAPSVFIFPPSDEQLKSGTASVVCLLNNFYPREAKVQWKVDNALQSGNSQESVTEQDSKDSTYSLSSTLTLSKADYEKHKVYACEVTHQGLSSPVTKSFNRGEC
Consider B5, for which the concentration giving a half-maximal response (EC50) in test [2] was 3.49 nM; in test [3], 1.81 nM.

B6: anti-human PD-L1 mAb 84G09 (without LALA mutation) (antibody, human IgG1, kappa)
heavy: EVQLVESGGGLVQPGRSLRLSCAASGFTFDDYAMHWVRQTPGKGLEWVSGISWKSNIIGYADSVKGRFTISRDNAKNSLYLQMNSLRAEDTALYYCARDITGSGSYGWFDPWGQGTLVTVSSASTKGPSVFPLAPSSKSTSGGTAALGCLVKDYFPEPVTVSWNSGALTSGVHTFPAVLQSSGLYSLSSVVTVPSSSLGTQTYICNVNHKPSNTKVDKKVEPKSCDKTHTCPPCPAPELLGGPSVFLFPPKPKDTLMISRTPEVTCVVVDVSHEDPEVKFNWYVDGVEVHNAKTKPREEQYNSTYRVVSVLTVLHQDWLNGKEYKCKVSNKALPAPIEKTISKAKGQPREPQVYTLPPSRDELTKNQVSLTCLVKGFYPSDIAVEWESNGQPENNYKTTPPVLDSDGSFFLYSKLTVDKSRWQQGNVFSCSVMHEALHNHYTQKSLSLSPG
light: DIQMTQSPSSLSASVGDRVTITCRASQSISSYLNWYQQKPGKAPKPLIYVASSLQSGVPSSFSGSGSGTDFTLTISSLQPEDFATYYCQQSYSNPITFGQGTRLEIKRTVAAPSVFIFPPSDEQLKSGTASVVCLLNNFYPREAKVQWKVDNALQSGNSQESVTEQDSKDSTYSLSSTLTLSKADYEKHKVYACEVTHQGLSSPVTKSFNRGEC
notes: Human IgG1; also called 84G09 (parental); parental anti-PD-L1 mAb
As to B6, the EC50 in test [2] was 3.11 nM and 3.05 nM; in test [3], 1.64 nM and 1.96 nM.
